The values that follow come from patent publication US20220056137A1 (GIGAGEN, published 2022).

Assay [1] concerns the target T1, human PD-L1 protein (soluble) (human, UniProt Q9NZQ7 19-239).
T1 construct: also called PD-L1 (R&D Systems); His-tagged PD-L1 protein
Kind of assay: SPR, mAb captured on anti-human IgG Fc, PD-L1 as analyte. In general terms: SPR reads the build-up and loss of mass on a sensor chip optically.
Description: (§1) The surface was then deactivated with 1 M ethanolamine pH 8.5 (Carterra Inc.). Running buffer used for the lawn immobilization was HBS-EPC (10 mM HEPES, 150 mM NaCl, 3 mM EDTA, 0.05% Tween 20, pH 7.4; Teknova).
(§2) The sensor chip was then transferred to a continuous flow microspotter (CFM; Carterra Inc.) for array capturing. The mAb supernatants were diluted 50-fold (3-10 mg/mL final concentration) into HBS-EPC with 1 mg/mL BSA. The samples were each captured twice with 15-minute and 4-minute capture steps on the first and second prints, respectively, to create multiple densities, using a 65 mL/min flow rate. The running buffer in the CFM was also HBS-EPC.
(§3) Next, the sensor chip was loaded onto an SPR reader (MX-96 system; Ibis Technologies) for the kinetic analysis. […] PD-L1 injections were 5 minutes with a 15-minute dissociation at 8 mL/second in a non-regenerative kinetic series. An injection of the goat anti-Human IgG Fc capture antibody at 75 mg/mL was injected at the end of the series to verify the capture level of each mAb. Binding data was double referenced by subtracting an interspot surface and a blank injection and analyzed for ka (on-rate), kd (off-rate), and KD (affinity) using the Kinetic Interaction Tool software (Carterra Inc.).

In the next assay the target is T2, cyno PD-L1 (cyno).
T2 construct: Soluble analyte in BLI
In words: BLI (Octet), antibody on AHC biosensor, cyno PD-L1 as analyte.

For assay [2], the target named is T1, human PD-L1 protein (soluble). In words: SPR, mAb captured on anti-human IgG Fc, PD-L1 as analyte. This is another data set of the same source.
Description: as §1, §2, §3
The target in the next assay is T3, rhPD-L1-Fc (human, UniProt Q9NZQ7 19-239, limits assumed).
T3 construct: Recombinant human PD-L1-Fc coated on ELISA plates; not shown: Fc part
Kind of assay: competition ELISA: plate-bound rhPD-L1-Fc, antibody titrated, competitor rhCD80-His detected. For orientation: ELISA stands for enzyme-linked immunosorbent assay.

In assay [3] the target is PD-L1 expressed on CHO cells (human, UniProt Q9NZQ7 19-290). In words: cell-based or functional assay.

Like-named read-outs stand apart in the source and are kept apart here.
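Throughout, for koff: array SPR with mAb supernatants captured at several densities, PD-L1 injected for 5 min then 15 min dissociation, non-regenerative kinetic series, double-referenced against interspot surface and blank injection.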
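Throughout, for kon: array SPR with mAb supernatants captured at several densities, PD-L1 injected for 5 min then 15 min dissociation, non-regenerative kinetic series, double-referenced against interspot surface and blank injection.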

Chain of PD-L1 expressed on CHO cells (Q9NZQ7 19-290 limits assumed): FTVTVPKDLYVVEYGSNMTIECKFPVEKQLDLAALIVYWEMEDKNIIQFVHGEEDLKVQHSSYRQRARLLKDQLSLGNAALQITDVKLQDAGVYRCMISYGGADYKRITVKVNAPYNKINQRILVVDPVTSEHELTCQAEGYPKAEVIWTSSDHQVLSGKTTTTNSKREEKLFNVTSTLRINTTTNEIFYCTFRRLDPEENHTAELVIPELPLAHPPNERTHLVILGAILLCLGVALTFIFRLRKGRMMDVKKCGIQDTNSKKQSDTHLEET
T3 sequence (Q9NZQ7 19-239 limits assumed): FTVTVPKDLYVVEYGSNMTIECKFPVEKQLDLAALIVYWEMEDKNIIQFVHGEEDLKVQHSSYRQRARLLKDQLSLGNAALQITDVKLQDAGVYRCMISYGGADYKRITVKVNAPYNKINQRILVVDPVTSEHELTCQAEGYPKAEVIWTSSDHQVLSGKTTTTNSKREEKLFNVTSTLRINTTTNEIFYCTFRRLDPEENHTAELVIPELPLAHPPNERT
T1 sequence (Q9NZQ7 19-239 limits assumed): as above
Description for cyno PD-L1: For BLI, antibodies were loaded onto an Anti-Human IgG Fc (AHC) biosensor using the Octet Red96 system (ForteBio). Loaded biosensors were dipped into antigen dilutions beginning at 300 nM, with 6 serial dilutions at 1:3. Kinetic analysis was performed using a 1:1 binding model and global fitting.
Description for rhPD-L1-Fc: Plates were coated with rhPD-L1-Fc and then blocked with 1× PBS with 2% w/v BSA. After blocking a dilution series of the indicated antibody was added to the plate.

B1: antibody A7 (antibody, V domains shown)
VH: QVQLQESGPGLVKPSETLSLTCTVSGGSISSYYWSWIRQPPGKGLEWIGYIFYSGSTNYNPSLKSRVTISVDTSKNQFSLKLSSVTAADTAVYFCARDNWHDGGVDYWGQGTLVTVSS
VL: EIVMTQSPTTLSLSPGERATLSCRASQSVSSSYLSWYQQKPGQAPRLLIYGASTRATGIPARFSGSGSGTDFTLTISSLQPEDFAVYYCQQDYNLRTFGQGTKVEIK
notes: Tested as full-length mAb made in CHO cells; also called L7H7
What is called Kd is the concentration at which binding is half-saturated. Lower therefore signals higher affinity. For orientation: koff means the rate constant with which the complex falls apart. Low values mean slow dissociation, high ones fast dissociation. The kon is the rate constant with which the complex forms. Low values mean slower complex formation, high ones faster complex formation. One may read the EC50 as the concentration at which the effect is half-maximal. Take B1: the Kd in assay [1] is 17 nM. Besides, the Kd with cyno PD-L1 stood at 23 nM. In assay [2], this molecule returned a Kd of 16.7 nM, a koff of 0.0095 s⁻¹ and a kon of 570000 M⁻¹ s⁻¹. The molecule further had an EC50 in the assay with rhPD-L1-Fc of 1.88 µg/mL. Moreover, the “Promega assay antagonist (EC50, ug/mL)” value in assay [3] was found to be 0.151 µg/mL.

B2: antibody A2 (antibody, V domains shown)
VH: EVQLVESGGGLVQPGGSLRLSCAASGFTFSRYDMSWVRQAPGKGLEWVSTISGSGGSTYYADSVKGRFTISRDNSKTTLYLQMISLRAEDTAVYYCAKAGFTMIVVAFDYWGQGTLVTVSS
VL: DIQMTQSPSSLSASVGDRVTITCRASQGISNYLAWFQQKPGKAPKSLIYAASSLQSGVPSKFSGSGSGTDFTLTISSLQPEDFATYYCQQYNSYPYTFGQGTKLEIK
notes: Tested as full-length mAb made in CHO cells; also called L2H2
B2: the Kd amounted to 3.5 nM in assay [1], 5.2 nM with cyno PD-L1 and 3.45 nM in assay [2]. Moreover, in assay [2], the koff was found to be 0.0038 s⁻¹. This molecule also yielded an on-rate (kon) in assay [2] of 1.1e+06 M⁻¹ s⁻¹. The molecule further yielded an EC50 with rhPD-L1-Fc of 0.87 µg/mL. Further, the “Promega assay antagonist (EC50, ug/mL)” value in assay [3] was determined as 0.042 µg/mL.

B3: antibody A5 (antibody, V domains shown)
VH: QVQLVESGGGVVQPGRSLRLSCAASGFAFSSYGMHWVRQAPGKGLEWVALIWFDGNNKFYADSVKGRFTISRDNSKNTLYLQMNSLRAEDTAVYYCARDTTAASFDYWGQGTLVTVSS
VL: EIVMTQSPATLSLSPGERATLSCRASQSVSSTYLSWYQQKPGQAPRLLIFGASTRATGIPARFSGSGSGTDFTLTISSLQPEDFAVYYCQQDYNLPPTFGPGTKVDIK
notes: Tested as full-length mAb made in CHO cells; also called L5H5
In the case of B3, in assay [1], the affinity, expressed as Kd, was 15 nM. The Kd with cyno PD-L1 is 8.6 nM. In addition, in assay [2], the Kd was found to be 14.6 nM, the koff came out at 0.0086 s⁻¹ and the association rate constant (kon) stood at 590000 M⁻¹ s⁻¹. The same molecule gave an EC50 in the assay with rhPD-L1-Fc of 0.97 µg/mL. For the same molecule, the “Promega assay antagonist (EC50, ug/mL)” value in assay [3] is 0.0985 µg/mL.

B4: antibody A3 (antibody, V domains shown)
VL: AIQMTQSPSSLSASVGDRVTITCRASQDIRNDLGWYQQQPGKAPKLLIYAASSLQSGVPSRFSGSGSGTDFTLTISSLQPEDFATYYCLQDYNYPPTFGQGTKVEIK
V domain: QVQLVESGGGVVQPGRSLRLSCAASGFTFSNYGMHWVRQAPGKGLEWVAVIWFDGNTKYYTDSVKGRFTISRDNSKNTLYLQMNSLRAEDTAVYYCARDTTMVPMDVWGQGTTATVSS
notes: Tested as full-length mAb made in CHO cells; also called L3H3
In the case of B4, the dissociation constant (Kd) in assay [1] is 5 nM; in the assay with cyno PD-L1, 8.3 nM; in assay [2], 5.14 nM. Besides, the off-rate constant (koff) in assay [2] is 0.0019 s⁻¹. The molecule further yielded an association rate constant (kon) in assay [2] of 370000 M⁻¹ s⁻¹. The molecule further gave an EC50 with rhPD-L1-Fc of 0.99 µg/mL. Besides, in assay [3], the “Promega assay antagonist (EC50, ug/mL)” value was 0.12 µg/mL.

B5: antibody A4 (antibody, V domains shown)
VH: QVQLVESGGGVVQPGRSLRLSCAASGFTFSNYGMHWVRQAPGKGLEWVAVIWFDGNTKYYTDSVKGRFTISRDNSKNTLYLQMNSLRAEDTAVYYCARDITMVPMDVWGQGTTVTVSS
VL: AIQMTQSPSSLSASVGDRVTITCRASQDIRNDLGWYQQQPGKAPKLLIYAASSLQSGVPSRFSGSGSGTDFTLTISSLQPEDFATYYCLQDYNYPPTFGQGTKVEIK
notes: Tested as full-length mAb made in CHO cells; also called L4H4
As to B5, in assay [1], binding was characterised by a dissociation constant (Kd) of 6.4 nM. In addition, the dissociation constant (Kd) with cyno PD-L1 is 11.3 nM. In addition, in assay [2], the dissociation constant Kd worked out at 6.25 nM, the koff worked out at 0.001 s⁻¹ and the kon is 160000 M⁻¹ s⁻¹. Besides, the EC50 in the assay with rhPD-L1-Fc was determined as 1.25 µg/mL. The “Promega assay antagonist (EC50, ug/mL)” value in assay [3] stood at 0.198 µg/mL.
